The results in this text go back to patent EP4755914A1 (CSPC Megalith Biopharmaceutical Co., Ltd., dated 2025).

The chains are these.
B1: humanized antibody hu17-H3L1 (antibody, human IgG1, kappa, L234A L235A, V domains shown)
VH: QVTLKESGPTLVKPTQTLTLTCSFSGFSLSTSGMGVAWIRQPPGKALEWLAHIWWDDDKRYNPSLKSRLTITKDTSKNQVVLTMTNMDPVDTATYYCARPQFITTVVAFYWYFDVWGQGTTVTVSS
VL: DILLTQSPSSLSVSVGDRVTITCRASENIYSNLAWYQQKPGKAPKLLVYAATNLADGVPSRFSGSGSGTQYTLTISSLQPEDFATYYCQHFWGTPWTFGGGTKLEIKR
B2: humanized antibody hu17-H4L1 (antibody, human IgG1, kappa, L234A L235A, V domains shown)
VH: B1 VH with S23T, N62G
VL: B1 VL
B3: humanized antibody hu17-H2L1 (antibody, human IgG1, kappa, L234A L235A, V domains shown)
VH: B1 VH with Q1E, S64A, M84I, M87V
VL: B1 VL
B4: murine antibody 17-F12-G8-A6 (antibody, V domains shown)
VH: EVTLKESGPGILQPSQTLSLTCSFSGFSLSTSGMGVAWIRQPSGKGLEWLAHIWWDDDKRYNPALKSRLTISKDTSSNQVFLKIASVDTADTATYYCARPQFITTVVAFYWYFDVWGAGTTVTVSS
VL: DILLTQSPASLSVSMGETVTITCRASENIYSNLAWYQQKQGKSPQLLVYAATNLADGVPSRFSGSGSGTQYSLKINSLQSEDFGSYYCQHFWGTPWTFGGGTKLEIK

Broadly, the EC50 is the concentration that produces a half-maximal response. Higher therefore signals a need for much substance. The Kd is the free concentration of one partner at which half of the binding sites on the other are occupied at equilibrium, for simple one-to-one binding. Read a low Kd as a tighter complex. The koff is a measure of how fast the partners let go of each other. One may read the kon as the rate constant with which the complex forms. Read a high kon as faster complex formation.

Numbering of substitutions follows the chain as printed.

For the first experiment, the target named is T1, ROR1 on stably transgenic ROR1-expressing cells MDA-MB-231-ROR1 (UniProt Q01973 30-937, limits assumed).
T1 construct: whole, on cells
T1 sequence (Q01973 30-937 limits assumed): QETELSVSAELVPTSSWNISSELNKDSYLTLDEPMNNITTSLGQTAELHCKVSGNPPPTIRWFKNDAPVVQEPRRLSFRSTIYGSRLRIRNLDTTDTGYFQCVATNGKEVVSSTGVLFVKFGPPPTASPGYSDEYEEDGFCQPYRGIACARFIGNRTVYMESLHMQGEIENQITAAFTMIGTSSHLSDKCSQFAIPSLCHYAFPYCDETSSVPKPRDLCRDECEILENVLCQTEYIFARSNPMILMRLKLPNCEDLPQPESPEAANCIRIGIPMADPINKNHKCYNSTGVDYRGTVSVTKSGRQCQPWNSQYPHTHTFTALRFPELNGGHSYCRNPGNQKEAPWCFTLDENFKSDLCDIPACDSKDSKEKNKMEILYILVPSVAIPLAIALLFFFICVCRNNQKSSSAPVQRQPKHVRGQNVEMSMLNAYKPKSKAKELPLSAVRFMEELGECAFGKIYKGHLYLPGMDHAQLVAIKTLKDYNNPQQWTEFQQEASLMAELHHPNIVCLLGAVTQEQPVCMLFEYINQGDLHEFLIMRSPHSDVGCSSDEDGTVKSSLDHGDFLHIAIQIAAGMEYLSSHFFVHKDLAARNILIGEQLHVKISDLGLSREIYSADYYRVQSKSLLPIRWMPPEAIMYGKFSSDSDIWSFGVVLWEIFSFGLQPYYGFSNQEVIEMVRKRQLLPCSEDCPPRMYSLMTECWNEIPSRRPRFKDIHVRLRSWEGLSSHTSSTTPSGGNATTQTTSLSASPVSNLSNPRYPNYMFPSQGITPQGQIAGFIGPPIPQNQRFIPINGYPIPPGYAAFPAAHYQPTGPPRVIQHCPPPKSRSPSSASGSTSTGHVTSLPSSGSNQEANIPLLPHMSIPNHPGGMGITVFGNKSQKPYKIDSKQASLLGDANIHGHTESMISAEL
The experiment in a line: flow cytometry on MDA-MB-231-ROR1 cells. In general terms: Flow cytometry measures light scatter and fluorescence of single cells or particles in a stream.
B1 showed a half-maximal effective concentration (EC50) of 0.107 µg/mL.

B2: the EC50 came to 0.101 µg/mL.

B3 came in with an EC50 of 0.114 µg/mL.

Turning to B4, the EC50 turned out to be 0.0988 µg/mL.

Another experiment deals with T2, ROR1 protein (ACROBiosystems, Cat# RO1-H5223) (UniProt Q01973 308-395).
T2 construct: Bought protein
T2 sequence (Q01973 308-395 limits assumed): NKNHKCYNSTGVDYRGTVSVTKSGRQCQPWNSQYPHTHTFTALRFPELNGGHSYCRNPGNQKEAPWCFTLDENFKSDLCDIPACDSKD
The experiment in a line: ELISA on ROR1 protein, anti-IgG secondary antibody, OD450. On the technique in general: ELISA stands for enzyme-linked immunosorbent assay.
Take B1: a half-maximal effect (EC50) was put at 0.0014 µg/mL.

For the molecule B2, a half-maximal response (EC50) required 0.00116 µg/mL.

Molecule B3 returned a half-maximal effective concentration (EC50) of 0.00142 µg/mL. The EC50 values of the last two molecules are within 1.5-fold of each other.

In turn, B4 yielded a half-maximal effective concentration (EC50) of 0.00136 µg/mL.

The next experiment deals with T3, ROR1 antigen (UniProt Q01973 30-403, limits assumed).
T3 construct: construct not described
T3 sequence (Q01973 30-403 limits assumed): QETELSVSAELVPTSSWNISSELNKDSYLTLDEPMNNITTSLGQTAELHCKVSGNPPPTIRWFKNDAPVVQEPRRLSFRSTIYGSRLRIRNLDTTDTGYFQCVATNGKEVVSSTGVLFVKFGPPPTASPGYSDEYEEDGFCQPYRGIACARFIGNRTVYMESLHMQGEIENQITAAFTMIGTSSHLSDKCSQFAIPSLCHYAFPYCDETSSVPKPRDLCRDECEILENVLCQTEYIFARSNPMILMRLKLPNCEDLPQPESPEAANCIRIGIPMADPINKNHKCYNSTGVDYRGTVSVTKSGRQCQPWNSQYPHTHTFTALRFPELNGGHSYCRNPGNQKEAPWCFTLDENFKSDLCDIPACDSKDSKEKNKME
The experiment in a line: BLI (Octet RED96e), antibody on sensor, ROR1 antigen from 100 nM in 2-fold dilutions. A general note: In BLI a coated tip is dipped into the sample, and binding shifts an interference pattern.
As for B1, the Kd was 32.4 nM, the koff was found to be 0.0279 s⁻¹ and the kon worked out at 859000 M⁻¹ s⁻¹.

With B2, the Kd is 20 nM, the koff is 0.0147 s⁻¹ and the kon came out at 738000 M⁻¹ s⁻¹.

Take B3: the equilibrium dissociation constant (Kd) is 22.7 nM, the koff was found to be 0.0185 s⁻¹ and the kon worked out at 814000 M⁻¹ s⁻¹.

B4: binding was characterised by a dissociation constant (Kd) of 14.8 nM, the dissociation rate constant (koff) worked out at 0.0105 s⁻¹ and the kon was 708000 M⁻¹ s⁻¹.
